The source of these data is article PMC2815190 (Molecular immunology, 2009).

The target in data set [1] is human Toll-like receptor 8 with the RQSYA motif deleted (human) (UniProt Q9NR97). Kind of data set: immunoblot of cell lysate. (Immunoblotting shows a protein as a band on a membrane.)
Data set [2] deals with the molecule itself. Nature of the data set: immunoblot of cell lysate.

Regarding “human Toll-like receptor 8 with the RQSYA motif deleted (from UniProt Q9NR97-1 27-1041)”, the stoichiometry N (as a rule, a count of units in the complex or per binding partner) in data set [1] was 2.

B1: human Toll-like receptor 8, wild type (receptor, UniProt Q9NR97-1 27-1041, looked up)
chain: EENFSRSYPCDEKKQNDSVIAECSNRRLQEVPQTVGKYVTELDLSDNFITHITNESFQGLQNLTKINLNHNPNVQHQNGNPGIQSNGLNITDGAFLNLKNLRELLLEDNQLPQIPSGLPESLTELSLIQNNIYNITKEGISRLINLKNLYLAWNCYFNKVCEKTNIEDGVFETLTNLELLSLSFNSLSHVPPKLPSSLRKLFLSNTQIKYISEEDFKGLINLTLLDLSGNCPRCFNAPFPCVPCDGGASINIDRFAFQNLTQLRYLNLSSTSLRKINAAWFKNMPHLKVLDLEFNYLVGEIASGAFLTMLPRLEILDLSFNYIKGSYPQHINISRNFSKLLSLRALHLRGYVFQELREDDFQPLMQLPNLSTINLGINFIKQIDFKLFQNFSNLEIIYLSENRISPLVKDTRQSYANSSSFQRHIRKRRSTDFEFDPHSNFYHFTRPLIKPQCAAYGKALDLSLNSIFFIGPNQFENLPDIACLNLSANSNAQVLSGTEFSAIPHVKYLDLTNNRLDFDNASALTELSDLEVLDLSYNSHYFRIAGVTHHLEFIQNFTNLKVLNLSHNNIYTLTDKYNLESKSLVELVFSGNRLDILWNDDDNRYISIFKGLKNLTRLDLSLNRLKHIPNEAFLNLPASLTELHINDNMLKFFNWTLLQQFPRLELLDLRGNKLLFLTDSLSDFTSSLRTLLLSHNRISHLPSGFLSEVSSLKHLDLSSNLLKTINKSALETKTTTKLSMLELHGNPFECTCDIGDFRRWMDEHLNVKIPRLVDVICASPGDQRGKSIVSLELTTCVSDVTAVILFFFTFFITTMVMLAALAHHLFYWDVWFIYNVCLAKVKGYRSLSTSQTFYDAYISYDTKDASVTDWVINELRYHLEESRDKNVLLCLEERDWDPGLAIIDNLMQSINQSKKTVFVLTKKYAKSWNFKTAFYLALQRLMDENMDVIIFILLEPVLQHSQYLRLRQRICKSSILQWPDNPKAEGLFWQTLRNVVLTENDSRYNNMYVDSIKQY
In the case of B1, in data set [2], the “stoichiometry N” value is 2.
